Measurements published in patent publication CN114829399A (dated 2022).

T1: 人FLT3/FLK2受体蛋白 (human, UniProt P36888 27-993)
T1 construct: whole, on cells; Always presented on cells (REH/Reh endogenous); also called CD135; 人酪氨酸激酶受体FLT3/FLK2受体蛋白
T1 sequence (looked up): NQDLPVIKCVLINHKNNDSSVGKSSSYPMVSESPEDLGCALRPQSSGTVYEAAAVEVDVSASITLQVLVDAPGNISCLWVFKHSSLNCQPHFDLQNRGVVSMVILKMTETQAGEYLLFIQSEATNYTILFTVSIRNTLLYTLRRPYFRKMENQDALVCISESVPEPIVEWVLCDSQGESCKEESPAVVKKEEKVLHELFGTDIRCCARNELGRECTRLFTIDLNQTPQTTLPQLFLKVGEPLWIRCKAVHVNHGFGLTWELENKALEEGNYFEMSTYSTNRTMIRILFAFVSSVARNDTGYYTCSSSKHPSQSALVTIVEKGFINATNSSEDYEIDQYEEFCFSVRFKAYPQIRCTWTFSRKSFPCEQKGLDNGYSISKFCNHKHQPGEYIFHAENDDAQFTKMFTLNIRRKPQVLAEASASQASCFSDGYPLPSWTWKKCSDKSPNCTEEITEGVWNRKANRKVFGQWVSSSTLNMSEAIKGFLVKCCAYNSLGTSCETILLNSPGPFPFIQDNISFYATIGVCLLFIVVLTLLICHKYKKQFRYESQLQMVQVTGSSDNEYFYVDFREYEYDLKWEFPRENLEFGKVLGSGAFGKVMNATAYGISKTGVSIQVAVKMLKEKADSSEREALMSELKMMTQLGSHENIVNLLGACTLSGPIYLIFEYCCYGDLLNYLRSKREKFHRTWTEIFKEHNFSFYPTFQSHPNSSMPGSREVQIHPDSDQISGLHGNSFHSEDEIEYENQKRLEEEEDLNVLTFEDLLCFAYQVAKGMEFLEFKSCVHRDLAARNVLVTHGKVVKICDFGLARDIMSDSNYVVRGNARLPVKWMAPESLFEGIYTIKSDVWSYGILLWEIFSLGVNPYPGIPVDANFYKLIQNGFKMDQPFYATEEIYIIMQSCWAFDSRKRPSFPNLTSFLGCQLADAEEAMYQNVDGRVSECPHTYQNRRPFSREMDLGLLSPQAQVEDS

B1: MHC1694 - 1-18BA (antibody, V domains shown)
VH: QVTLKESGPGILQPSQTLSLTCSFSGFSLSTSTMGVGWIRQPSGKGLEWLLHILWNDSKYYNPALKSRLTISKDTYNKQVFLKIANVDTADTATYYCARIVYYSTYVGYFDVWGAGTTVTVSS
VL: DIQMTQSPSSLSASLGERVSLTCRASQEISGYLSWLQQKPDGTIKRLIYAASTLHSGVPKRFSGSRSGSDYSLTISRLESEDVADYYCLQYASYPFTFGSGTKLEIR
notes: Mouse monoclonal from hybridoma; Entries are called 'light chain' and 'heavy chain'; also called Ab1-18New
B2: MHC1692 - 1-23DA (antibody, V domains shown)
VH: B1 VH
VL: B1 VL
notes: Mouse monoclonal from hybridoma; also called Ab1-23DA
B3: MHC1693 - 3-16HA (antibody, V domains shown)
VH: EVQLQQSGAELVRPGALVKLSCKGSGFNIKDYYIHWVKQRPEQGLEWIGRIDPENDITMYDPKFQGKASITADTSSNTAYLQLSSLTSEDTAVYYCARNGNFFAYWGQGTLVTVSA
VL: not shown
notes: Mouse monoclonal from hybridoma; Entries are called 'light chain' and 'heavy chain'; also called Ab3-16HA

molecular target: T1, 人FLT3/FLK2受体蛋白; assay: flow cytometry EC curve on REH cells

Binding result, binds:
B1
B2
B3
